Assay results taken from patent US9803013B2, “Biological materials and uses thereof” (BioInvent International AB, priority 2005, dated 2017).

Assays:
[1] = system: primary patient MM cells; experiment: SCID-hu mouse model of multiple myeloma; type: in vivo
Description: Bone marrow cells (>20% plasma cells) from myeloma patients (two patients in experiment 1 [top panel] and two different patients in experiment 2 [lower panel]) were injected into transplanted human fetal bones of SCID-hu mice. Four weeks after myeloma cell inoculation mice were divided into four groups to yield similar mean hIgG levels between groups, each group comprising mice grafted with MM cells from the different patient donors used in the experiment, and twice weekly treatment with 2 mg/kg BI-505, 1 mg/kg bortezomib or 2 mg/kg control human IgG was started (arrow). […] Graphs show mean hIgG concentrations.
Primary human MM cells depend on interactions with bone marrow stromal cells to proliferate and survive. The SCID-hu mouse harbors a human microenvironment where primary patient MM cells proliferate and induce pathology similar to human clinical MM (Yaccoby et al., 1998). MM cell derived human IgG titers were detected (>10 μg/ml) in the serum of SCID-hu mice four weeks after implantation of human MM cells to transplanted human bones, at which time treatment with antibodies (2 mg/kg) or bortezomib (1 mg/kg) began. Human IgG titers increased steadily in control treated SCID-hu mice over the course of experimentation to reach maximal concentrations of 40±5 μg/ml just before sacrifice (FIG. 18B and FIG. 19). […] Two independent experiments were performed with similar results (FIG. 18B and FIG. 19), each with MM cells from two different patient donors (n=4).
Human fetal femurs and tibias, obtained at 17 to 22 gestational weeks, were cut into fragments and implanted subcutaneously in SCID mice (SCID-hu) at age 6 to 8 weeks. Each animal was implanted with one bone fragment. Four weeks after bone implantation, 2 to 14×10^6 bone marrow cells from each patient (two patients per experiment for a total of four patients in two independent experiments, n=4), containing>20% plasma cells were injected directly into the human bone of 6 to 8 SCID-hu mice in a final volume of 30 to 40 μl of phosphate-buffered saline (PBS). One group of mice was implanted with bone only and served as “healthy” bone control. Mouse sera were serially monitored for human immunoglobulin (hIg) and the isotype levels were used as an indicator of myeloma cell growth by elisa. When hIg level reached 10 μg/mL or higher in 2 consecutive measurements after 4 weeks of injection of the tumor cells, the mice were divided into four groups to yield similar mean hIgG levels between groups, each group comprising mice grafted with MM cells from the different patient donors used in each experiment. The four treatment groups were: healthy control group (no myeloma cells injected and no drug treatment), isotype control group (myeloma cells injected and treated with isotype control IgG, 2 mg/kg, i.p., twice weekly), BI505 group (myeloma cells injected and treated with BI505, 2 mg/kg, i.p., twice weekly) and bortezomib group (myeloma cells injected and treated with 1 mg/kg, i.p., twice weekly). In some graphs hIgG levels were normalized to pretreatment (4 weeks) levels and the percent increase or decrease in hIgG levels as a function of treatment and time was analyzed. Normalized data from animals receiving the same treatment (control IgG, BI-505 or bortezomib) but grafted with MM cells from each of the four different patient donors in the two experiments were pooled and statistical difference was assessed by grouped 2-way ANOVA test and Bonferroni's posttest using GraphPad Prism 5 software. Patient myeloma cells were taken after informed consent and with the approval of the local ethics committee. For x-radiography evaluation and quantification of bone mineral density (BMD) mice in the four groups were sacrificed and the implanted human bones were taken out and fixed in 10% formalin solution. Radiographs were taken with an AXR Minishot-100 beryllium source instrument (Associated X-Ray Imaging Corp., Haverhill, Mass., USA) and 100 s exposure at 30 kV. […]

[2] = system: endothelial cells (HUVEC, HMVEC); experiment: HUVEC and HMVEC apoptosis assay; type: cell-based; details: resting or IFN-γ activated HUVEC/HMVEC, antibody cross-linked or not
Description: (FIG. 23G) Antibody-induced endothelial cell apoptosis. HUVEC or HMVEC endothelial cells were incubated with paclitaxel (positive control), BI-505 or isotype control IgG in the presence or absence of cross-linking mAb. Apoptosis was measured by flow-cytometry following staining of cells with Annexin V-AF488.
Based on BI-505's documented ability to confer Fc:FcγR-dependent antitumor activity in malignant B cells, and a proposed general negative role for complement activation with regard to antibody tolerability (Lim et al.; van der Kolk et al., 2001), direct cytotoxic effects (PCD, ADCC, and CDC) of BI-505 in ICAM-1-expressing human peripheral blood B cells and endothelial cells were examined.
HUVEC (Cascade Biologics, pool of donors) and HMVEC (Cascade Biologics) were plated in 6-well plates (80 000-120 000 cells/well) in the presence or absence of 200 U/mL IFNγ, in order to induce ICAM-1 expression. Media was changed the day before apoptosis-induction experiments were performed and titrated concentrations of BI-505, enlimomab or isotype control antibody were added to the cells, in the presence or absence of cross-linking Fab (ab′)2 (same as the B-cell protocol). […] Necrotic cells were identified by increased fluorescence in the FL-4 channel and apoptotic cells by increased signal in the FL-1 channel on a flow cytometer (FACSCalibur, BD Bioscience).

[3] = target: T1, mouse FcγRIV (Mus musculus, UniProt A0A0B4J1G0); experiment: BiaCore analysis of BI-505 Fc-variant binding to FcγR
T1 construct: made in house; host or cells: HEK293E cells (transient)
T1 sequence (A0A0B4J1G0 21-249): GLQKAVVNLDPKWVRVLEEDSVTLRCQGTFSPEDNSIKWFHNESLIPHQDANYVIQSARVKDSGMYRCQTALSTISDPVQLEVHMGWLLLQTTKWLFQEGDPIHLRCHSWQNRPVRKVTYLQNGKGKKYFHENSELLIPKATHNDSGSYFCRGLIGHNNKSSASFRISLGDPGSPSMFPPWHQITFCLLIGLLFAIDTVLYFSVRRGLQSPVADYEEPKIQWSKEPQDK
Description: (FIG. 20B) BiaCore analysis of BI-505 Fc-variant antibodies binding to mouse FcγRIV.
(§1) His-tagged human FcγRIIIa and mouse FcγRIV were transiently expressed in HEK293E cells, purified using Ni-NTA chromatography, and characterized by SDS-PAGE and/or Biacore. Surface plasmon resonance (SPR) measurements were performed using a Biacore 3000 instrument. Goat F(ab)′2 α-human-F(ab)′2 fragments (Jackson Laboratories) were immobilized with a CM-5 chip using a standard amine coupling protocol. BI-505 (IgG1) and IgG4 or IgG1 297Q variants of BI-505 were diluted to 15 and 60 μg/mL respectively and added to the surface at 10 μL/min for 3 min. His-tagged human FcγRIIIa or mouse FcγRIV was pre-incubated with an α-HIS antibody (R&D Systems) at a 2:1 molar ratio before addition to the chip surface, 30 μL/min, for 1 min. After each cycle the surface was regenerated twice with glycine buffer pH 1.7.

[4] = target: T2, human FcγRIIIa (Homo sapiens, UniProt P08637); experiment: as above
T2 construct: made in house; host or cells: HEK293E cells (transient)
T2 sequence (P08637 17-254): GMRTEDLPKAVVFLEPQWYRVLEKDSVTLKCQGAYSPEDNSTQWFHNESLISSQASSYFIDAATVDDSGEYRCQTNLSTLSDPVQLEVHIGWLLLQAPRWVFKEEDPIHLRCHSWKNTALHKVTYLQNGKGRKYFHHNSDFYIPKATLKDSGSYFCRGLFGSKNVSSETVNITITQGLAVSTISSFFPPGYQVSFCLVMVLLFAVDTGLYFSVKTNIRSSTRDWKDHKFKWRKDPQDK
Description: (FIG. 20C) BiaCore analysis of BI-505 Fc-variant antibodies binding to human FcγRIIIa.
as §1

[5] = system: RPMI-8226 cells; experiment: Macrophage ADCP; type: cell-based; details: RPMI-8226, human macrophages
Description: (§2) Cultured macrophages were detached and plated in flat 96-well plates at 50 000 cells/well and placed in 37° C. CFSE-stained target cells were incubated with antibodies for up to 1 hr on ice. After washing, the different cell solutions were added to the culture plates containing macrophages at a ratio of 5:1 (Target cells:Macrophages). Thereafter, the culture plates were incubated at 37° C. for 1-2 hr (primary patient MM cells) or 16 hr (RPMI-8226 cells). The percentage of macrophages that had phagocytosed tumor cells (CFSE^+, CD206^+) per total analyzed macrophages was determined following gating and acquisition of 5000 CD206^+ cells/sample.
(§3) Buffy coats from healthy human donors were ordered through the local blood central at Lund University Hospital and Halmstad Hospital. Peripheral blood mononuclear cells (PBMCs) were first extracted using Ficoll-Paque PLUS (GE Healthcare Life Sciences), followed by isolation of monocytes with CD14 MicroBeads and MACS separation (Miltenyi Biotec). The monocytes were cultured in RPMI 1640 medium with 10% heat-inactivated FBS (Invitrogen) and 25 ng/mL of recombinant human M-CSF (R&D Systems) for 6-14 days, causing differentiation into macrophages. Medium with M-CSF was changed every 2-3 days upon initiation of cultures.
(§4) RPMI-8226 cells (ATCC) were continuously cultured in RPMI 1640 medium supplemented with 10 mM HEPES, 1 mM sodium pyruvate and 10% FBS. For multiple myeloma cells, freshly isolated bone marrow samples were donated by patients at Lund University Hospital and subsequently processed with Ficoll-Paque PLUS. Negative isolation of malignant plasma cells was then performed using the Plasma Cell Isolation Kit II according to the manufacturer's instructions (Miltenyi Biotec).
(§5) At least 4 h before co-culture with target cells the cultured macrophages were detached with Accutase (Sigma Aldrich), before plated in flat 96-well plates at 50 000 cells/well and placed in 37° C. […] After washing, the different cell solutions were added to the culture plates containing macrophages at a ratio of 5:1 (Target cells:Macrophages). Thereafter, the culture plates were incubated at 37° C. for 1-2 hr (primary patient MM cells) or 16 hr (RPMI-8226 cells). Next, samples were stained with APC-conjugated anti-CD206 antibody (BD Biosciences), before harvested by scraping the culture plate wells. The resulting cell solutions were then analyzed by flow cytometry, where CD206^+ macrophages were gated and acquired at 5000 cells/sample. A cut-off level identifying CFSE^+, CD206^+ double positive (phagocytic) macrophages was set for each experimental sample series. This level differed between the individual assays since the magnitude of basic (unstimulated) phagocytosis varied (different donors and time-points) among the experiments.

[6] = system: primary patient's MM cells; experiment: Macrophage ADCP; type: cell-based; details: human macrophages
Description: as §2, §3, §4, §5

[7] = mouse, 2 mg/kg
Description: Blood samples collected from the vena cava were centrifuged at 2500 g for 15 min to obtain serum and the samples were stored at −20° C.
Sera were prepared from blood samples collected from the vena saphena from 3 animals in each group at different time-points during the course of in vivo experimentation. Briefly, ELISA plates were coated over night with human ICAM-1 protein. The following day, plates were incubated with the serum samples. Biotinylated goat-anti-BI-505 was used for detection of BI-505 in the serum samples. Sera were analysed by ELISA to determine BI-505 trough levels. Trough BI-505 serum concentrations were then plotted as a function of dose and were fitted using five parameter log-log curve and XLfit software (IDBS, Guildford, United Kingdom).

[8] = system: ARH-77 tumors; experiment: SCID/ARH-77 subcutaneous xenograft model; details: established ARH-77 tumors
Description: For subcutaneous grafting, 1-5×10^6 tumor cells (RPMI-8226, NCI-H929, EJM, OPM-2, ARH-77, or Daudi) were subcutaneously injected at a volume of 100 μl into the left flank of anesthetized mice as described in the Supplemental Information. […] Treatment with saline, isotype control IgG, bortezomib, lenalidomide, dexamethasone, or BI-505 started on day 5 (RPMI-8226). Treatment with melphalan started on day 10. BI-505 or isotype IgG mAb was administered i.v. at 2 mg/kg/inj twice weekly for 8 weeks; bortezomib at 1 mg/kg/inj once weekly for 8 weeks; lenalidomide orally at 2 mg/kg/inj for 2 cycles consisting of 5 days of treatment and 2 days of wash out; melphalan i.v. at 3 mg/kg/inj once weekly for 8 weeks; and dexamethasone at 6 mg/kg/inj three times weekly for 2 weeks.
Mice were anaesthetized with a mixture of sevofluran and oxygen prior to myeloma cell inoculation and 1-10×10^6 myeloma cells were then subcutaneously injected in a volume of 100 μl into the left flank. Treatment with antibodies by intraperitoneal injection started either 1 day after cell inoculation (prophylactic model) or when tumors reached approximately 100 mm^3 (established model). Antibodies were administered in 200 μL of PBS. Treatment with PBS only or isotype IgG were used as controls. Macrophages or NK-cells were depleted by i.p. administration of 0.1 ml clodronate liposomes (Clophosome-A, FormuMax, Scientific Inc. Palo Alto, USA) or 20 μl anti-asialo GM1 pCI Ab (CL8955, Cedarlane Laboratories Limited, Canada) respectively, starting one day prior to antibody treatment, followed by administration twice weekly for a total of three weeks, PBS was used as control.
Tumor size was measured using a digital calliper and tumor volumes were calculated according to the formula width^2×length×0.52, as previously described (Cao et al., 1999).
Statistical analyses of tumor growth inhibition relative to control antibody treatment were carried out using Kruskal-Wallis nonparametric ANOVA with Dunn's multiple comparisons test or Mann-Whitney non-parametric analysis, as indicated in the figure legends.

Molecule: CC(C)C[C@H](NC(=O)[C@H](Cc1ccccc1)NC(=O)c1cnccn1)B(O)O [bortezomib, reference compound]
- bone osteoclasts ([1]; TRAP staining, compared to control-treated mice): reduced numbers of bone osteoclasts
- serum human IgG levels ([1]; antibody 2 mg/kg or bortezomib 1 mg/kg twice weekly): halted or reduced serum human IgG levels to below pre-treatment levels

Molecule: CC(=O)O[C@H]1C(=O)[C@@]2(C)[C@H]([C@H](OC(=O)c3ccccc3)[C@]3(O)C[C@H](OC(=O)[C@H](O)[C@@H](NC(=O)c4ccccc4)c4ccccc4)C(C)=C1C3(C)C)[C@]1(OC(C)=O)CO[C@@H]1C[C@@H]2O [paclitaxel, reference compound]
- cell death in normal cells [2]: induced significant PCD

B1: BI-505 IgG1 N297Q: BI-505 variant with abolished FcγR-binding (antibody, V domains shown)
VH: EVQLLESGGGLVQPGGSLRLSCAASGFTFSNAWMSWVRQAPGKGLEWVAFIWYDGSNKYYADSVKGRFTISRDNSKNTLYLQMNSLRAEDTAVYYCARYSGWYFDYWGQGTLVTVSS
VL: QSVLTQPPSASGTPGQRVTISCTGSSSNIGAGYDVHWYQQLPGTAPKLLIYDNNNRPSGVPDRFSGSKSGTSASLAISGLRSEDEADYYCQSYDSSLSAWLFGGGTKLTVLG
- binding to mouse FcγRIV, order [3]: IgG1 N297Q<IgG4<IgG1
- binding to human FcγR [4]: did not bind to human FcγR
- ADCP [5]: did not confer ADCP
- ADCP [6]: did not confer ADCP
- In vivo serum concentrations [7]: 9.6 ± 3 µg/mL
- in vivo antitumor activity of Fc-variants, order [8]: IgG1 N297Q<IgG4<IgG1

B2: BI-505 IgG4: BI-505 variant with reduced FcγR-binding compared to wildtype BI-505 IgG1 (antibody, V domains shown)
VH: EVQLLESGGGLVQPGGSLRLSCAASGFTFSNAWMSWVRQAPGKGLEWVAFIWYDGSNKYYADSVKGRFTISRDNSKNTLYLQMNSLRAEDTAVYYCARYSGWYFDYWGQGTLVTVSS
VL: QSVLTQPPSASGTPGQRVTISCTGSSSNIGAGYDVHWYQQLPGTAPKLLIYDNNNRPSGVPDRFSGSKSGTSASLAISGLRSEDEADYYCQSYDSSLSAWLFGGGTKLTVLG
- binding to mouse FcγRIV, order [3]: IgG1 N297Q<IgG4<IgG1
- In vivo serum concentrations [7]: 13 ± 3.1 µg/mL
- in vivo antitumor activity of Fc-variants, order [8]: IgG1 N297Q<IgG4<IgG1
